The chains are these.
B1: ED-B specific fusion protein 219087 DOTA Lu (designed binder, part only; not given: ED-B binding domain, linker, part only)
chain, part: LAEAKVLALKELDKYGISNYYKNLINNAKTVEGVKALKEAIVAALP
modifications: also: DOTA coupled, site not given here, Lu loaded
B2: 215680 (designed binder, part only; not given: ED-B binding domain, linkers, tags, part only)
fusion protein, part: LAEAKVLALKELDKYGISNYYKNLIDKAKTIEGVEALKDAILAA
B3: 215661 (designed binder, part only; not given: ED-B binding domain, linkers, tags, part only)
fusion protein, part: B2 fusion protein, part with D26N, K27N, E35K, A40Q, L42V
B4: 215675 (designed binder, part only; not given: ED-B binding domain, linkers, tags, part only)
fusion protein, part: B2 fusion protein, part with D26N, K27N
B5: 217806 (designed binder, part only; not given: ED-B binding domain, linkers, tags, part only)
fusion protein, part: LAEAKVLALKELDKYGISNYYKNLINNAKTVEGVKALKEAIVAA
B6: 215663 (designed binder, part only; not given: ED-B binding domain, linkers, tags, part only)
fusion protein, part: B5 fusion protein, part with V31I, E39A
B7: 215671 (designed binder, part only; not given: ED-B binding domain, linkers, tags, part only)
fusion protein, part: B5 fusion protein, part with V31I, E39D, A40E
B8: 215674 (designed binder, part only; not given: ED-B binding domain, linkers, tags, part only)
fusion protein, part: B5 fusion protein, part with V31I, K35E
B9: 215665 (designed binder, part only; not given: ED-B binding domain, linkers, tags, part only)
fusion protein, part: B5 fusion protein, part with V31I, E39A, A40Q, V42L
B10: 215670 (designed binder, part only; not given: ED-B binding domain, linkers, tags, part only)
fusion protein, part: B5 fusion protein, part with V31I
B11: 215673 (designed binder, part only; not given: ED-B binding domain, linkers, tags, part only)
fusion protein, part: B2 fusion protein, part with D26N, K27N, L42V
B12: 219089 (designed binder, part only; not given: ED-B binding domain, linkers, tags, part only)
fusion protein, part: B5 fusion protein, part with L9I, Y15A, K22F, E39A, A40Q
B13: 215652 (designed binder, part only; not given: ED-B binding domain, linkers, tags, part only)
fusion protein, part: B5 fusion protein, part with V31I, E39A, A40Q
B14: 219087 (designed binder, part only; not given: ED-B binding domain, linkers, tags, part only)
fusion protein, part: B1 chain, part
modifications: also: fusion protein, linkers and tags not given here
B15: 221191 (designed binder, part only; not given: FAP binding domain, linkers, tags, part only)
fusion protein, part: B5 fusion protein, part
B16: 215659 (designed binder, part only; not given: ED-B binding domain, linkers, tags, part only)
fusion protein, part: B5 fusion protein, part with V31I, K35E, E39A, A40Q
B17: 221215 (designed binder, part only; not given: FAP binding domain, linkers, tags, part only)
fusion protein, part: B5 fusion protein, part with V31I, E39D, A40E
B18: 215035 (designed binder, part only; not given: ED-B binding domain, linkers, tags, part only)
fusion protein, part: LAEAKVLAIKELDKAGISDYYFNLINNAKTVEGVKALKAQIVAA
B19: 215037 (designed binder, part only; not given: ED-B binding domain, linkers, tags, part only)
fusion protein, part: B18 fusion protein, part with E32D
B20: 215055 (designed binder, part only; not given: ED-B binding domain, linkers, tags, part only)
fusion protein, part: B18 fusion protein, part with D19N, V31I
B21: 215052 (designed binder, part only; not given: ED-B binding domain, linkers, tags, part only)
fusion protein, part: B18 fusion protein, part with D19N, A36D
B22: 215039 (designed binder, part only; not given: ED-B binding domain, linkers, tags, part only)
fusion protein, part: B18 fusion protein, part with V31I

Numbering of substitutions follows the chain as printed. Where no end group is shown, it is not given here.

The results in this text go back to patent US20250388696A1.

By Kd is commonly meant a measure of binding affinity in units of concentration.

Chain of extra domain B of oncofetal human fibronectin (ED-B) (human) (P02751 1266-1356 limits assumed): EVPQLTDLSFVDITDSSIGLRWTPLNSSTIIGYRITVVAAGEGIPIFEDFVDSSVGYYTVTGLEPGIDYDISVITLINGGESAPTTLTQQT

The first experiment concerns the target extra domain B of oncofetal human fibronectin (ED-B) (human) (UniProt P02751). The experiment in a line: SPR. In general terms: In SPR one partner is held on a chip, and binding of the other changes the refractive index at the surface.
In turn, B1 registered a Kd below 1 nM.

In a further experiment the target is human serum albumin (human) (UniProt P02768). The experiment in a line: SPR.
Chain of human serum albumin (human) (P02768 25-609 limits assumed): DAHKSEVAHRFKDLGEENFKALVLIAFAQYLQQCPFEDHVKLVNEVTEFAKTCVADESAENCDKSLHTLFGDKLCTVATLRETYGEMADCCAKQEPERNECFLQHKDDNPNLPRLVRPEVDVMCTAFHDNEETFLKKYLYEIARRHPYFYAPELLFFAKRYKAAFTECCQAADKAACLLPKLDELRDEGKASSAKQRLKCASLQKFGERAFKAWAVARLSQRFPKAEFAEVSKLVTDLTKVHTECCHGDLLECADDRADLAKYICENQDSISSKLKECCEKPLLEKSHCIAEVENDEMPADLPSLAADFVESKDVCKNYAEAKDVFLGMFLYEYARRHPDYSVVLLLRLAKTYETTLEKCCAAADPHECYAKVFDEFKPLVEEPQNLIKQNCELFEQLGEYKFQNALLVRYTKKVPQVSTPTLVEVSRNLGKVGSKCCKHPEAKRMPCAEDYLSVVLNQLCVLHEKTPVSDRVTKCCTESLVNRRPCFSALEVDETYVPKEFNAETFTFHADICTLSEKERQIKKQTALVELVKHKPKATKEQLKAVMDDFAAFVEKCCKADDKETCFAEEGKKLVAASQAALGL
In turn, B1 yielded a Kd of 1.3 nM.

The target of a further experiment is mouse serum albumin (mouse) (UniProt P07724). Nature of the experiment: SPR.
Chain of mouse serum albumin (mouse) (P07724 25-608 limits assumed): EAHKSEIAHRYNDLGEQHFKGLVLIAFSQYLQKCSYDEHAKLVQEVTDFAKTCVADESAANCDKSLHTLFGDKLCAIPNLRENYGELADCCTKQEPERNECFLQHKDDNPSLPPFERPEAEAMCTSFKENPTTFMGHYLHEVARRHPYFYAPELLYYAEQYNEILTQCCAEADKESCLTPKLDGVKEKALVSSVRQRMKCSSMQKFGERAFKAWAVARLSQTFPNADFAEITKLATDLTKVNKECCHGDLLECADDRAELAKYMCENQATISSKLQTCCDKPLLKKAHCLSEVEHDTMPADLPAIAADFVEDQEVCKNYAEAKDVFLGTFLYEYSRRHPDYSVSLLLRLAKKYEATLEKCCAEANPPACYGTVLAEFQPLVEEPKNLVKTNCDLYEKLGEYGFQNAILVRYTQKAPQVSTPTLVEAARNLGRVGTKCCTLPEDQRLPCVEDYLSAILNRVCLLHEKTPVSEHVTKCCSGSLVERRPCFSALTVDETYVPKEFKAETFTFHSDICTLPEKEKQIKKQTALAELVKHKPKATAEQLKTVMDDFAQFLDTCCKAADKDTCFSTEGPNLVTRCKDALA
For B1, the Kd stood at 1.3 nM.

The next experiment addresses extra domain B of oncofetal human fibronectin (ED-B) (human) (UniProt P02751). The experiment in a line: SPR, ED-B immobilised on the chip, pH 7.3, 1:1 Langmuir fit.
In turn, B2 had a Kd of 0.1 nM.

B3 had a Kd of 0.4 nM.

With B4, the dissociation constant (Kd) came out at 0.6 nM.

Molecule B5 returned a Kd of 0.1 nM.

Consider B6, for which the dissociation constant Kd came to 0.2 nM.

As to B7, the Kd is 0.1 nM.

Molecule B8 registered a Kd of 0.1 nM.

Molecule B9 yielded a Kd of 0.1 nM.

B10 showed a Kd of 0.7 nM.

B11 displayed a Kd of 0.1 nM.

With B12, the Kd was determined as 0.3 nM.

B13: the Kd was found to be 0.4 nM.

Molecule B14 showed a Kd of 0.2 nM.

The target in a further experiment is human serum albumin (human) (UniProt P02768). The experiment in a line: SPR, HSA immobilised on the chip, pH 7.3, 1:1 Langmuir fit.
B2 registered a Kd of 0.8 nM.

Take B15: the Kd stood at 3.8 nM.

B3 returned a Kd of 3.8 nM.

B16 showed a Kd of 13.4 nM.

As for B4, the Kd was 1.1 nM.

In the case of B5, the Kd was determined as 1.5 nM.

For B6, the Kd amounted to 2.6 nM.

As for B7, the Kd is 7.3 nM.

Take B17: the Kd came to 7.9 nM.

B8 yielded a Kd of 5 nM.

In turn, B9 yielded a Kd of 3 nM.

Molecule B10 yielded a Kd of 3.4 nM.

In turn, B11 displayed a Kd of 3.3 nM.

As for B18, the Kd is 2.4 nM.

Turning to B19, the Kd came to 19.9 nM.

Molecule B12 displayed a Kd of 12.5 nM.

B20 returned a Kd of 1.7 nM.

B21 registered a Kd of 7.9 nM.

Regarding B13, the Kd was 4.1 nM.

In turn, B22 yielded a Kd of 2.2 nM.

In turn, B14 had a Kd of 1.4 nM.

Another experiment deals with hFAP-Fc (human) (UniProt Q12884). The experiment in a line: SPR, Fc-tagged FAP captured on immobilised protein A, pH 7.3, 1:1 Langmuir fit.
Chain of hFAP-Fc (human) (Q12884 26-760 limits assumed): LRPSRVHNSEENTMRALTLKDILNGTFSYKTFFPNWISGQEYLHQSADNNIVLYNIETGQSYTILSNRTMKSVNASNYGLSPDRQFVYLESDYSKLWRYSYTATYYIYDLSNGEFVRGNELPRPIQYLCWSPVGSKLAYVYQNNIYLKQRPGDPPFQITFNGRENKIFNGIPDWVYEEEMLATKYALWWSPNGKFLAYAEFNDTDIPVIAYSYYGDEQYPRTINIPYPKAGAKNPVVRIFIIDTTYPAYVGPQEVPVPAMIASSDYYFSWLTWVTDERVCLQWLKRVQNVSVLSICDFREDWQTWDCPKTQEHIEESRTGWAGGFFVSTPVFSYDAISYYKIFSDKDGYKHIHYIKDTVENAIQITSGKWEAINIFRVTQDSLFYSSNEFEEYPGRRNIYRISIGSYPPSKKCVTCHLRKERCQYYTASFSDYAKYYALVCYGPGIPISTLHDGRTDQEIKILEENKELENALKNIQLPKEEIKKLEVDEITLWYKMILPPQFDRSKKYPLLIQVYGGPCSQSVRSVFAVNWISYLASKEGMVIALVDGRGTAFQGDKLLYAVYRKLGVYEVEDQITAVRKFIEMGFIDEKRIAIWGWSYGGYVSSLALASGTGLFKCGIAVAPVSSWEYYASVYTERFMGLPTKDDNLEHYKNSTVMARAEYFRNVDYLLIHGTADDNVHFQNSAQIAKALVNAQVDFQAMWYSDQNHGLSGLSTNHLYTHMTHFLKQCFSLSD
Molecule B15 returned a Kd of 3.8 nM.

Molecule B17 yielded a Kd of 8 nM.
